Holding throughout (assay): SPR
(Surface plasmon resonance follows binding to a sensor surface in real time, without labels.)

Experiment [1] concerns the target 1D11.
The target in experiment [2] is T1, TβRII-SE/Fc (TβRII-Soluble Endogenous fused to the human IgG1 Fc domain) (human).
T1 chain: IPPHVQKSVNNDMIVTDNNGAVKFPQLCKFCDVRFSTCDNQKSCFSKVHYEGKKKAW

Experiment [3] has as its target T2, TβRII-Fc (TβRII extracellular domain fused to human IgG1 Fc) (human, UniProt P37173-1 23-166).
The target of experiment [4] is T1, TβRII-SE/Fc (TβRII-Soluble Endogenous …).
Experiment [5] has as its target T2, TβRII-Fc (TβRII extracellular domain …). The source holds these as a separate data set.

T2 sequence (P37173 23-166): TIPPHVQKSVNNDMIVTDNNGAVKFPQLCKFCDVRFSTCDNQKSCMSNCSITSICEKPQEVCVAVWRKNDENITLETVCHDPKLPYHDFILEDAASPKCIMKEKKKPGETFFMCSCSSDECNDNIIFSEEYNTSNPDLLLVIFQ

B1: TGF-β3 (ligand)
chain: ALDTNYCFRNLEENCCVRPLYIDFRQDLGWKWVHEPKGYYANFCSGPCPYLRSADTTHSTVLGLYNTLNPEASASPCCVPQDLEPLTILYYVGRTPKVEQLSNMVVKSCKCS
Usually Kd stands for the constant that tells how readily two partners part at equilibrium. Lower therefore signals higher affinity. In general, koff refers to the rate constant with which the complex falls apart. B1: the Kd in experiment [1] came to 0.068 nM; in experiment [2], 0.093 nM; in experiment [3] it was 0.137 nM. In addition, the results for the koff in experiment [1], in experiment [4] and in experiment [5] were 0.00012 s⁻¹, 0.00018 s⁻¹ and 0.00116 s⁻¹, respectively.

B2: TGF-β2 (ligand)
chain: ALDAAYCFRNVQDNCCLRPLYIDFKRDLGWKWIHEPKGYNANFCAGACPYLWSSDTQHSRVLSLYNTINPEASASPCCVSQDLEPLTILYYIGKTPKIEQLSNMIVKSCKCS
For the molecule B2, the values for the Kd in experiment [1], in experiment [2] and in experiment [3] were 0.33 nM, 0.674 nM and 9.5 nM, respectively. Further, the off-rate (koff) in experiment [1] is 0.0015 s⁻¹; in experiment [4] it was 0.00067 s⁻¹; in experiment [5], 0.0197 s⁻¹.

For the origin of these results see PMC8461249 (2021).
